Source: paper doi:10.1101/685867 (bioRxiv, 2020)

Target: T1, S0_2.126 (synthetic construct (de novo design))
T1 chain: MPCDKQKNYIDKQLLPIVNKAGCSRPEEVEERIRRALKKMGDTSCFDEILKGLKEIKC
Assay: SPR

B1: D25 IgG (antibody, V domains shown)
VH: QVQLVQSGAEVKKPGSSVMVSCQASGGPLRNYIINWLRQAPGQGPEWMGGIIPVLGTVHYAPKFQGRVTITADESTDTAYIHLISLRSEDTAMYYCATETALVVSTTYLPHYFDNWGQGTLVTVSS
VL: DIQMTQSPSSLSAAVGDRVTITCQASQDIVNYLNWYQQKPGKAPKLLIYVASNLETGVPSRFSGSGSGTDFSLTISSLQPEDVATYYCQQYDNLPLTFGGGTKVEIK
B1 was tested. Which Kd did it give?
The Kd was ~50 pM.
